Test results taken from patent publication US20170266254A1 (AILERON THERAPEUTICS, published 2017).
Bridges are numbered along the chain shown (N, C = ends). [ ]: non-standard residue; d: D form. S5 = C=CCCC[C@](C)(N)C(=O)O

T1: C-terminally 6x Histidine-tagged Beta-Catenin (aa 134-668, 59 KD) (UniProt P35222 134-668)
T1 construct: range 134-668; Armadillo repeat region
T1 sequence: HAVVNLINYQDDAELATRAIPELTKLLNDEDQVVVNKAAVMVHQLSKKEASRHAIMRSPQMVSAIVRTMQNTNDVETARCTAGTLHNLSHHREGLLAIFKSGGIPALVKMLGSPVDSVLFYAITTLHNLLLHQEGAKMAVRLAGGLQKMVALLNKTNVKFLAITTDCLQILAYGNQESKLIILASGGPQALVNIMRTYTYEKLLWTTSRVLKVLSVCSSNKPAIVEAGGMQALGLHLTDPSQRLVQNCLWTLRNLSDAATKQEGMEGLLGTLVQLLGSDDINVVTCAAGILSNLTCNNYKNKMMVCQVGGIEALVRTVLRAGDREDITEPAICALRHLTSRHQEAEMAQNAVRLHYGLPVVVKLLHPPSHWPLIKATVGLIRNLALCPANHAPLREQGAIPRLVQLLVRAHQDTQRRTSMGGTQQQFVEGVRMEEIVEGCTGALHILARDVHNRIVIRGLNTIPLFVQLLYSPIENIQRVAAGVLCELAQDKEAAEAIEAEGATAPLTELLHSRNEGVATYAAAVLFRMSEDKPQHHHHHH

B1: SP13 (peptide)
peptide: Ac-SAERDLADVKS[S5]LVN[S5]SEKR-NH2
modifications: staple 12-16
SMILES: CC(=O)N[C@@H](CO)C(=O)N[C@@H](C)C(=O)N[C@@H](CCC(=O)O)C(=O)N[C@@H](CCCNC(=N)N)C(=O)N[C@@H](CC(=O)O)C(=O)N[C@@H](CC(C)C)C(=O)N[C@@H](C)C(=O)N[C@@H](CC(=O)O)C(=O)N[C@H](C(=O)N[C@@H](CCCCN)C(=O)N[C@@H](CO)C(=O)N[C@@]1(C)CCCC=CCCC[C@@](C)(C(=O)N[C@@H](CO)C(=O)N[C@@H](CCC(=O)O)C(=O)N[C@@H](CCCCN)C(=O)N[C@@H](CCCNC(=N)N)C(N)=O)NC(=O)[C@H](CC(N)=O)NC(=O)[C@H](C(C)C)NC(=O)[C@H](CC(C)C)NC1=O)C(C)C
B2: SP23 (peptide)
peptide: Ac-SAE[S5]DLA[S5]VKSSLVNESEKR-NH2
modifications: staple 4-8
SMILES: CC(=O)N[C@@H](CO)C(=O)N[C@@H](C)C(=O)N[C@@H](CCC(=O)O)C(=O)N[C@@]1(C)CCCC=CCCC[C@@](C)(C(=O)N[C@H](C(=O)N[C@@H](CCCCN)C(=O)N[C@@H](CO)C(=O)N[C@@H](CO)C(=O)N[C@@H](CC(C)C)C(=O)N[C@H](C(=O)N[C@@H](CC(N)=O)C(=O)N[C@@H](CCC(=O)O)C(=O)N[C@@H](CO)C(=O)N[C@@H](CCC(=O)O)C(=O)N[C@@H](CCCCN)C(=O)N[C@@H](CCCNC(=N)N)C(N)=O)C(C)C)C(C)C)NC(=O)[C@H](C)NC(=O)[C@H](CC(C)C)NC(=O)[C@H](CC(=O)O)NC1=O
B3: SP37 (peptide)
peptide: LGANDELISFADEGAQEEKSSNNSSAARDLADVKSSLV
modifications: not fully specified; N-terminal acetyl; C-terminal amide; $ = (S)-alpha-(2'-pentenyl)alanine at positions 11 and 15 (first crosslink) and 27 and 31 (second crosslink), each pair joined by an all-carbon crosslinker with one double bond
B4: SP30 (peptide)
peptide: Ac-LGANDELISFKDEGEQEEKSSENSSA[S5]RDL[S5]DVKSSLV-NH2
modifications: staple 27-31
SMILES: CC[C@H](C)[C@H](NC(=O)[C@H](CC(C)C)NC(=O)[C@H](CCC(=O)O)NC(=O)[C@H](CC(=O)O)NC(=O)[C@H](CC(N)=O)NC(=O)[C@H](C)NC(=O)CNC(=O)[C@H](CC(C)C)NC(C)=O)C(=O)N[C@@H](CO)C(=O)N[C@@H](Cc1ccccc1)C(=O)N[C@@H](CCCCN)C(=O)N[C@@H](CC(=O)O)C(=O)N[C@@H](CCC(=O)O)C(=O)NCC(=O)N[C@@H](CCC(=O)O)C(=O)N[C@@H](CCC(N)=O)C(=O)N[C@@H](CCC(=O)O)C(=O)N[C@@H](CCC(=O)O)C(=O)N[C@@H](CCCCN)C(=O)N[C@@H](CO)C(=O)N[C@@H](CO)C(=O)N[C@@H](CCC(=O)O)C(=O)N[C@@H](CC(N)=O)C(=O)N[C@@H](CO)C(=O)N[C@@H](CO)C(=O)N[C@@H](C)C(=O)N[C@@]1(C)CCCC=CCCC[C@@](C)(C(=O)N[C@@H](CC(=O)O)C(=O)N[C@H](C(=O)N[C@@H](CCCCN)C(=O)N[C@@H](CO)C(=O)N[C@@H](CO)C(=O)N[C@@H](CC(C)C)C(=O)N[C@H](C(N)=O)C(C)C)C(C)C)NC(=O)[C@H](CC(C)C)NC(=O)[C@H](CC(=O)O)NC(=O)[C@H](CCCNC(=N)N)NC1=O
B5: SP25 (peptide)
peptide: Ac-LGANAELISFKDEGEQEEKSSENSSAERDLADAKSSAV-NH2
notes: Linear, not crosslinked; differs from SP14 by Ala at peptide positions 5, 33 and 37
B6: SP29 (peptide)
peptide: Ac-LGANDELISFKDEGE[S5]EEK[S5]SNNSSAERDLADVKSSLV-NH2
modifications: staple 16-20
SMILES: CC[C@H](C)[C@H](NC(=O)[C@H](CC(C)C)NC(=O)[C@H](CCC(=O)O)NC(=O)[C@H](CC(=O)O)NC(=O)[C@H](CC(N)=O)NC(=O)[C@H](C)NC(=O)CNC(=O)[C@H](CC(C)C)NC(C)=O)C(=O)N[C@@H](CO)C(=O)N[C@@H](Cc1ccccc1)C(=O)N[C@@H](CCCCN)C(=O)N[C@@H](CC(=O)O)C(=O)N[C@@H](CCC(=O)O)C(=O)NCC(=O)N[C@@H](CCC(=O)O)C(=O)N[C@@]1(C)CCCC=CCCC[C@@](C)(C(=O)N[C@@H](CO)C(=O)N[C@@H](CC(N)=O)C(=O)N[C@@H](CC(N)=O)C(=O)N[C@@H](CO)C(=O)N[C@@H](CO)C(=O)N[C@@H](C)C(=O)N[C@@H](CCC(=O)O)C(=O)N[C@@H](CCCNC(=N)N)C(=O)N[C@@H](CC(=O)O)C(=O)N[C@@H](CC(C)C)C(=O)N[C@@H](C)C(=O)N[C@@H](CC(=O)O)C(=O)N[C@H](C(=O)N[C@@H](CCCCN)C(=O)N[C@@H](CO)C(=O)N[C@@H](CO)C(=O)N[C@@H](CC(C)C)C(=O)N[C@H](C(N)=O)C(C)C)C(C)C)NC(=O)[C@H](CCCCN)NC(=O)[C@H](CCC(=O)O)NC(=O)[C@H](CCC(=O)O)NC1=O
B7: SP24 (peptide)
peptide: Ac-LGANAELISFKDEGEQEEKSSENSSAERDLADVKSSLV-NH2
notes: Linear, not crosslinked; differs from SP14 by Asp to Ala at the fifth residue of the peptide
B8: SP28 (peptide)
peptide: Ac-LGANDELISFKDEG[S5]QEE[S5]SSNNSSAERDLADVKSSLV-NH2
modifications: staple 15-19
SMILES: CC[C@H](C)[C@H](NC(=O)[C@H](CC(C)C)NC(=O)[C@H](CCC(=O)O)NC(=O)[C@H](CC(=O)O)NC(=O)[C@H](CC(N)=O)NC(=O)[C@H](C)NC(=O)CNC(=O)[C@H](CC(C)C)NC(C)=O)C(=O)N[C@@H](CO)C(=O)N[C@@H](Cc1ccccc1)C(=O)N[C@@H](CCCCN)C(=O)N[C@@H](CC(=O)O)C(=O)N[C@@H](CCC(=O)O)C(=O)NCC(=O)N[C@@]1(C)CCCC=CCCC[C@@](C)(C(=O)N[C@@H](CO)C(=O)N[C@@H](CO)C(=O)N[C@@H](CC(N)=O)C(=O)N[C@@H](CC(N)=O)C(=O)N[C@@H](CO)C(=O)N[C@@H](CO)C(=O)N[C@@H](C)C(=O)N[C@@H](CCC(=O)O)C(=O)N[C@@H](CCCNC(=N)N)C(=O)N[C@@H](CC(=O)O)C(=O)N[C@@H](CC(C)C)C(=O)N[C@@H](C)C(=O)N[C@@H](CC(=O)O)C(=O)N[C@H](C(=O)N[C@@H](CCCCN)C(=O)N[C@@H](CO)C(=O)N[C@@H](CO)C(=O)N[C@@H](CC(C)C)C(=O)N[C@H](C(N)=O)C(C)C)C(C)C)NC(=O)[C@H](CCC(=O)O)NC(=O)[C@H](CCC(=O)O)NC(=O)[C@H](CCC(N)=O)NC1=O
B9: SP27 (peptide)
peptide: Ac-LGANDELISFK[S5]EGE[S5]EEKSSNNSSAERDLADVKSSLV-NH2
modifications: staple 12-16
SMILES: CC[C@H](C)[C@H](NC(=O)[C@H](CC(C)C)NC(=O)[C@H](CCC(=O)O)NC(=O)[C@H](CC(=O)O)NC(=O)[C@H](CC(N)=O)NC(=O)[C@H](C)NC(=O)CNC(=O)[C@H](CC(C)C)NC(C)=O)C(=O)N[C@@H](CO)C(=O)N[C@@H](Cc1ccccc1)C(=O)N[C@@H](CCCCN)C(=O)N[C@@]1(C)CCCC=CCCC[C@@](C)(C(=O)N[C@@H](CCC(=O)O)C(=O)N[C@@H](CCC(=O)O)C(=O)N[C@@H](CCCCN)C(=O)N[C@@H](CO)C(=O)N[C@@H](CO)C(=O)N[C@@H](CC(N)=O)C(=O)N[C@@H](CC(N)=O)C(=O)N[C@@H](CO)C(=O)N[C@@H](CO)C(=O)N[C@@H](C)C(=O)N[C@@H](CCC(=O)O)C(=O)N[C@@H](CCCNC(=N)N)C(=O)N[C@@H](CC(=O)O)C(=O)N[C@@H](CC(C)C)C(=O)N[C@@H](C)C(=O)N[C@@H](CC(=O)O)C(=O)N[C@H](C(=O)N[C@@H](CCCCN)C(=O)N[C@@H](CO)C(=O)N[C@@H](CO)C(=O)N[C@@H](CC(C)C)C(=O)N[C@H](C(N)=O)C(C)C)C(C)C)NC(=O)[C@H](CCC(=O)O)NC(=O)CNC(=O)[C@H](CCC(=O)O)NC1=O
B10: SP26 (peptide)
peptide: LGANDELISFADEGAQEEKSSNNSSAERDLADVKSSLV
modifications: not fully specified; N-terminal acetyl; C-terminal amide; $ = (S)-alpha-(2'-pentenyl)alanine at positions 11 and 15, joined by an all-carbon crosslinker with one double bond

Target: T1, C-terminally 6x Histidine-tagged …
Assay: competitive fluorescence polarization, FAM-labelled linear probe as competitor, His-tagged beta-catenin 134-668
Protocol: The following experiments are performed at room temperature unless otherwise noted. First, an assay buffer is prepared composed of 25 mM Tris-Hcl pH 7.5, 200 mM Sodium Chloride, and 5 mM CHAPS. Next, 1M DTT is added to assay buffer to a final concentration of 2 mM. […] Forty μl of this protein stock is added to all but six wells of a 96 well plate (which will serve as the free peptide and Blank). Test competitor peptides are diluted from 1 mM DMSO stocks to 2× working stocks in assay buffer. Further dilutions are made in assay buffer-DMSO as to maintain a constant DMSO concentration in all wells. The dilution is carried out such that the peptides have a working concentration range of 40 μM-0.7 μM (2×). As a benchmark, a linear, non-crosslinked peptide competitor is prepared as above but with a working concentration range of 13-0.7 μM. Fifty μl of the competitor 2× stocks are added to the 40 μl of protein solution previously transferred into the assay 96 well plate. Next, a 10× stock of the fluorescent probe is prepared. The probe is identical to the linear benchmark peptide except for the n-terminal conjugation of a FAM flourophore with Beta-Alanine spacer. A 1 mM DMSO stock of the probe is serially diluted to a final concentration of 25 nM (10×) and 10 μl of this stock is added to all wells except for those that will serve as the blank. The assay plate is stored in the dark and the reaction is allowed to run at room temperature for three hours. The reaction is then read on a Biotek Synergy 2 with the following settings: 100 ms delay, 40 measurements per well, with excitation filters of […], and emission filters of […]. Data is then analyzed in Graphpad Prism.

With B1 as the binder, how does the IC50 read?
Its IC50 is at least 100000 nM.

Which IC50 does the source give for B2 here?
The IC50 was at least 100000 nM.

Which IC50 does the source give for B3 here?
The IC50 was 56 nM.

For B4, which IC50 is on record?
Its IC50 is 98 nM.

B5 was tested. Which IC50 did it give?
Its IC50 is at least 100000 nM.

B6 was tested. Which IC50 did it give?
The IC50 was 223 nM.

How did the IC50 turn out when Ac-LGANDELISFKDEGEQEEKSSENSSAERDLADVKSSLV-NH2 (Linear, not crosslinked) [SP14] was run?
Its IC50 is 95 nM.

B7 was tested. Which IC50 did it give?
Its IC50 is at least 100000 nM.

How did the IC50 turn out when B8 was run?
Its IC50 is 158 nM.

B9 was tested. Which IC50 did it give?
Its IC50 is 158 nM.

B10 was tested. Which IC50 did it give?
Its IC50 is 42 nM.
